Test results from the supplement of paper PMC10567573.

Test: protein stability index of a GFP-peptide fusion (GPS, HEK-293T) (PSI 1-6); higher = more stable
Settings: c terminus: a fixed tail appended
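Further: lentivirally expressed fusions sorted by FACS into six bins by GFP to DsRed ratio, PSI derived from sequencing read proportions per bin multiplied by bin number.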

## LKASMRELGLLIFFLFIGVILFSS [KCNA1 WT]
parent: IOH35854_54
  protein stability index: 2.1

## QELEEEIKELYENFCKHNGSKNVF
parent: IOH37933_70
  protein stability index: 2.68

## YANGGLNYSYRGYGALSSNLQPPA [C20orf112 WT]
parent: IOH40687_56
  protein stability index: 2.06

## ITEEKVCMVCKKKIGNSAFARYPN
parent: IOH40537_140
  protein stability index: 2.44

## YVASHKIEKEEQEKKRKEEEERRR [ACBD3 WT]
parent: IOH39821_30
  protein stability index: 2.71

## HSGEKPFICKECGKAYGWCSELIR
parent: IOH40635_69
  protein stability index: 2.02

## PRCDLVDLGEGKICFCCEEFQPAK
parent: IOH35782_7
  protein stability index: 2.92

## NLAGFILGCQGAQFVSSVPRCDLV
parent: IOH35782_4
  protein stability index: 2.97

## RFSRQCVVDKDKRNQCRYCRLKKC [HNF4A WT]
parent: IOH35808_17
  protein stability index: 2.46

## NLDTEELCEYFSQHLGEYENVLAA
parent: IOH40093_14
  protein stability index: 2.41

## KLAEAYLNLGPALSAALASSQKQH
parent: IOH40091_29
  protein stability index: 2.78

## QLDKNSEVYQEVQAMFDTLGIPKS [FAM98B WT]
parent: IOH35542_24
  protein stability index: 3.16

## FPKSEQVYLHFLSVVTEDGPEPKD
parent: IOH40635_35
  protein stability index: 2.15

## QQVKCIITEEKVCMVCKKKIGNSA
parent: IOH40537_139
  protein stability index: 2.82

## FSFKVSRWMGLACFRSLAASSPSI [CCDC70 WT]
parent: IOH40382_3
  protein stability index: 2.79

## YSCPATNECEITKRRRKSCQACRF [ESRRG WT]
parent: IOH39815_24
  protein stability index: 3.16

## GKAYGWCSELIRHRRVHARKEPSH
parent: IOH40635_71
  protein stability index: 2.85

## FSPNSPQFNVSGPGLLEEDNQWMT
parent: IOH40093_33
  protein stability index: 2.95

## VFQHHQYLSPLERKRLAREMQLSE [VENTX WT]
parent: IOH36691_19
  protein stability index: 2.52

## ENKPSTCSFSIERILGLDQKKDCV
parent: IOH40237_3
  protein stability index: 3.12

## SKYENYFSASERLSLKRELSWYRG
parent: IOH40237_15
  protein stability index: 1.92

## LIKFQVGLKKLNLHEEEHVLLMAI
parent: IOH39811_53
  protein stability index: 2.28

## FHELQMQVTASDSGDPPLSSNVSL
parent: IOH36207_89
  protein stability index: 2.17

## YGLQGGMAFLDKRLQVKEHQHEEI
parent: IOH37933_38
  protein stability index: 2.62

## YCAKLCEPQWFYEETESSDDVEVL
parent: IOH40091_6
  protein stability index: 2.25

## FQMEKIEHGYENMNHFTVNLNREE
parent: IOH40604_50
  protein stability index: 2.79

## VTLELSQLSMLPHLADLVSYSIQK
parent: IOH39811_37
  protein stability index: 2.42

## FSFRYQQELEEEIKELYENFCKHN
parent: IOH37933_69
  protein stability index: 2.5

## LRLENNHCHIEESEHVLKKAHKYS
parent: IOH40537_79
  protein stability index: 2.32

## HFKKTKKMGGKDFSFRYQQELEEE
parent: IOH37933_67
  protein stability index: 2.21

## FQASNPYLPTRGGTTMASGGRFRC
parent: IOH40604_10
  protein stability index: 1.74

## EQIAERKRKMVSWEASSLGLVTAA
parent: IOH39874_95
  protein stability index: 2.83

## YLPTRGGTTMASGGRFRCPSCRHE
parent: IOH40604_11
  protein stability index: 1.83

## LYLQLAICSSLQNLEKTIFCLQKL
parent: IOH40091_23
  protein stability index: 2.99

## FGIEIEVTDINDNAPKFQAENLDV
parent: IOH36207_21
  protein stability index: 2.77

## ICPICLEMFTKPVVILPCQHNLCR
parent: IOH40604_5
  protein stability index: 2.21

## TYLCERCQPRNLDKERAVLLQRRK
parent: IOH39874_27
  protein stability index: 2.15

## HDDGYMICCDKCSVWQHIDCMGID
parent: IOH39874_22
  protein stability index: 2.33

## EKALASILLQDHIRDLDVVVVSVA
parent: IOH37933_8
  protein stability index: 2.89

## CALNALTTTVCLVAAALRYLQIFA
parent: IOH35782_16
  protein stability index: 2.77

## TIRLRPRQVLCEKCKSTLSPPEAS [PWWP2B WT]
parent: IOH40143_16
  protein stability index: 3.06

## QSSHYLQWILDKQDLLKERQKDLK [CCNC WT]
parent: IOH40631_2
  protein stability index: 3.21

## GSEAAVIPLDLGCTQVTQDGDIPN
parent: IOH35782_37
  protein stability index: 5.39

## YKSFSKEQQTMDNLEKQLICPICL
parent: IOH40604_2
  protein stability index: 2.08

## SLPLQDELAFAEDLVLDEEGARAA
parent: IOH39702_47
  protein stability index: 3.08

## LGVAQRSLPLQDELAFAEDLVLDE
parent: IOH39702_46
  protein stability index: 2.84

## VAAALRYLQIFATRRSCIDESQIS
parent: IOH35782_18
  protein stability index: 1.98

## WIHRPGCRCKNSNTVYCKLESCPS [SPRY1 WT]
parent: IOH39997_49
  protein stability index: 2.19

## QKKDCVPLMKPHRPWADTCSSSGK
parent: IOH40237_6
  protein stability index: 3.2

## HVPNPPSGISFPSVVDHPMPEERA
parent: IOH40237_11
  protein stability index: 2.54

## YNENVYTEDGKLDIWSKSNYQVFQ [MED27 WT]
parent: IOH39902_37
  protein stability index: 2.11

## DCMGIDRQHIPDTYLCERCQPRNL
parent: IOH39874_25
  protein stability index: 2.99

## TTLLKCYLHTNVALVAPLLRLENN
parent: IOH40537_76
  protein stability index: 3.28
